Measurements from paper PMC2291572, “HDP—A Novel Heme Detoxification Protein from the Malaria Parasite” (PLoS Pathogens, 2008).

Tests used:
[1] = biological target: T1, HDP (Heme Detoxification Protein; PF14_0446) (Plasmodium falciparum, UniProt Q8IL04); assay: isothermal titration calorimetry; format: binding
T1 construct: full length, 205 residues; E. coli BL21 inclusion bodies, N-lauryl sarkosine solubilised

[2] = biological target: the molecule itself; assay: immunoblot (band of dimer size); Western blot with anti-HDP antibodies on protein extract of trophozoite-infected RBCs; gel conditions not shown
[3] = biological target: the molecule itself; assay: immunoblot (band of dimer size); Western blot of transfected parasites with a monoclonal antibody against the c-myc tag; protein secreted into infected RBC cytosol

Molecule: C=CC1=C(C)C2=Cc3c(C=C)c(C)c4[n]3[Fe]([Cl])[n]3c(c(C)c(CCC(=O)O)c3=CC3=NC(=C4)C(C)=C3CCC(=O)O)=CC1=N2 [heme]
- Kd [1]: 80 nM

B1: Heme Detoxification Protein (HDP), native, from P. falciparum-infected RBCs (natural protein, UniProt Q8IL04 1-205, looked up)
chain: MKNRFYYNLIIKRLYTRSGGLRKPQKVTNDPESINRKVYWCFEHKPVKRTIINLIYSHNELKIFSNLLNHPTVGSSLIHELSLDGPYTAFFPSNEAMQLINIESFNKLYNDENKLSEFVLNHVTKEYWLYRDLYGSSYQPWLMYNEKREAPEKLRNLLNNDLIVKIEGEFKHCNHSIYLNGSKIIRPNMKCHNGVVHIVDKPIIF
notes: Heme Detoxification Protein (HDP), Plasmodium falciparum, 205 amino acids; detected as intact HDP according to its predicted size; Called a dimer from bands on immunoblots and a silver-stained gel; also called native HDP; PfHDP; source: endogenous, extracts of P. falciparum trophozoite-infected RBCs and food vacuole preparation; also purified from the infected RBC extract by immunoprecipitation
- stoichiometry N [2]: 2

B2: c-MycHDP (HDP with an amino-terminal c-Myc tag) (natural protein, P. falciparum, UniProt Q8IL04 1-205, looked up)
chain: MKNRFYYNLIIKRLYTRSGGLRKPQKVTNDPESINRKVYWCFEHKPVKRTIINLIYSHNELKIFSNLLNHPTVGSSLIHELSLDGPYTAFFPSNEAMQLINIESFNKLYNDENKLSEFVLNHVTKEYWLYRDLYGSSYQPWLMYNEKREAPEKLRNLLNNDLIVKIEGEFKHCNHSIYLNGSKIIRPNMKCHNGVVHIVDKPIIF
notes: Heme Detoxification Protein (HDP), Plasmodium falciparum, 205 amino acids; the tag is described as attached to the end of the protein and found intact; also called pc-MycHDP; source: P. falciparum 3D7 parasites, transfected (episomal expression), secreted into infected RBC cytosol; not shown: c-Myc, N-terminal, kept
- stoichiometry N [3]: 2

B3: HDPc-Myc (HDP with a carboxyl-terminal c-Myc tag) (natural protein, P. falciparum, UniProt Q8IL04 1-205, looked up)
chain: MKNRFYYNLIIKRLYTRSGGLRKPQKVTNDPESINRKVYWCFEHKPVKRTIINLIYSHNELKIFSNLLNHPTVGSSLIHELSLDGPYTAFFPSNEAMQLINIESFNKLYNDENKLSEFVLNHVTKEYWLYRDLYGSSYQPWLMYNEKREAPEKLRNLLNNDLIVKIEGEFKHCNHSIYLNGSKIIRPNMKCHNGVVHIVDKPIIF
notes: Heme Detoxification Protein (HDP), Plasmodium falciparum, 205 amino acids; the tag is described as attached to the end of the protein and found intact; also called pHDPc-Myc; source: P. falciparum 3D7 parasites, transfected (episomal expression), secreted into infected RBC cytosol; not shown: c-Myc, C-terminal, kept
- stoichiometry N [3]: 2
